Consider two molecules from PMC7018707, “FUS Recognizes G Quadruplex Structures Within Neuronal mRNAs”.

For this data set, the target named is full-length FUS wild type (UniProt P35637 1-526). Nature of the data set: steady-state fluorescence (2-AP); 150 mM KCl, 5-fold excess BSA; Fluorescence: 10 mM cacodylic acid pH 6.5, 150 mM KCl, 23 C, 150 or 200 nM RNA, 5-fold excess BSA or HCV peptide; pull-down: 5 uM probe annealed in the same buffer, room temperature, RIPA lysate and washes; native PAGE 20%, RNA:peptide 1:1 to 1:3. The note with it: protein: recombinant, G quadruplex.
full-length FUS wild type, sequence (P35637 whole entry): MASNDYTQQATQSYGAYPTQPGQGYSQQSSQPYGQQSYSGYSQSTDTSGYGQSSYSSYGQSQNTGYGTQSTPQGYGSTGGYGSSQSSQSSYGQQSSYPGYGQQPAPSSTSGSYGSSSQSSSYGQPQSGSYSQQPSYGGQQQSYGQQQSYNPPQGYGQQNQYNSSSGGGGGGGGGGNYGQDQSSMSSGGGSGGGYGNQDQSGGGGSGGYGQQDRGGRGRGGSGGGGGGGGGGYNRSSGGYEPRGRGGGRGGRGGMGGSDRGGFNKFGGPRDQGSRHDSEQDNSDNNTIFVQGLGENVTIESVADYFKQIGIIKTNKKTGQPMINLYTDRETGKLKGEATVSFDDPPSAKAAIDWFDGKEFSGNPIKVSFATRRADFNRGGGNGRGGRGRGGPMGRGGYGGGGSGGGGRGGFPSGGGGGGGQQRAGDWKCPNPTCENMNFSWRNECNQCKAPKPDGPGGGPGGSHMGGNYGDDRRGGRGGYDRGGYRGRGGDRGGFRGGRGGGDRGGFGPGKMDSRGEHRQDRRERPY

The Kd is the concentration at which binding is half-saturated. For the molecule GGGGUUGGGGAGGGUGUAGGGGGUGGGG (structured_RNA, A18 replaced by 2-aminopurine) [Shank1a GQ 2-AP], where the note is “label: 2-AP at position 18”, the dissociation constant Kd was determined as 88 ± 27 nM. On to GGGAGGGAGGGUGGG (structured_RNA, A4 replaced by 2-aminopurine) [PSD-95 GQ2 2-AP], for which the Kd (label: 2-AP at position 4) amounted to 28 ± 10 nM.
